The values that follow come from PMC12392933, “The SCARECROW‐LIKE transcription factor from Populus davidiana × P. bolleana simultaneously improved drought tolerance and plant growth through acetylation‐dependent mechanisms”.

The target in data set [1] is T1, PdbSCL1 (Populus davidiana x P. bolleana …, UniProt A0AAJ6V7V0 1-473).
T1 sequence: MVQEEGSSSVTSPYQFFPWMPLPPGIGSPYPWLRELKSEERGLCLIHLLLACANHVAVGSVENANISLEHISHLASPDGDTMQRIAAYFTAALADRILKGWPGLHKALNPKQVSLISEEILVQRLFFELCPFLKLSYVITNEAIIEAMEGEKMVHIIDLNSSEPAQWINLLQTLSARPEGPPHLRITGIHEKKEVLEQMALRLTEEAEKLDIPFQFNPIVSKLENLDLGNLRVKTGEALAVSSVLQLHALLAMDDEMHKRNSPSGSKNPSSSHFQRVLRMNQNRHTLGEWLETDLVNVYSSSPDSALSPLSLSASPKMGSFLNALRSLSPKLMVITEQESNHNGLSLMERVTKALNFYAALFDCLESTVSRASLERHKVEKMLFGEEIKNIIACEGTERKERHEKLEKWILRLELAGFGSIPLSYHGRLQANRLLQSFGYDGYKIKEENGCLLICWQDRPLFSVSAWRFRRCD
The data set is described as follows: EMSA; Chemiluminescent EMSA kit (Beyotime), PAGE; buffer, salt, pH and temperature not stated. As to conditions: protein: recombinant; tags: MBP (pMALc5X); label: 3' biotin; blunt. In general terms: In EMSA bound probe runs differently from free probe, usually more slowly.

The target in data set [2] is T1, PdbSCL1. The data set is described as follows: competition; EMSA, unlabelled mutant competitor; Chemiluminescent EMSA kit (Beyotime), PAGE; buffer, salt, pH and temperature not stated. The note with it: protein: recombinant; tags: MBP (pMALc5X); label: unlabelled; blunt.

B1: NFY probe (3x CCAAT) (dsDNA)
DNA 1: CCAATCCAATCCAATC
DNA 2: GATTGGATTGGATTGG
As to B1, the binding result with PdbSCL1 [1] is listed as “binds”.

B2: NFY mutant competitor (CCAAT to TTTTT) (dsDNA)
DNA 1: TTTTTTTTTTTTTTTC
DNA 2: GAAAAAAAAAAAAAAA
For the molecule B2, the binding result with PdbSCL1 [2] is “no binding”.

B3: PCF probe (3x TGGGCC) (dsDNA)
DNA 1: TGGGCCTGGGCCTGGGCC
DNA 2: GGCCCAGGCCCAGGCCCA
Take B3: the binding result with PdbSCL1 [1] is reported as “binds”.

B4: ABRE probe (3x CACGTG) (dsDNA)
DNA 1: CACGTGCACGTGCACGTG
DNA 2: CACGTGCACGTGCACGTG
Consider B4, for which the binding result with PdbSCL1 [1] is “binds”.
